The target in the assay is GST-DOC2b (wild type) (mouse) (UniProt P70169). The assay is described as follows: pull-down.

We go through one substance from article PMC2628611.

UniProt P70169, sequence (P70169 whole entry): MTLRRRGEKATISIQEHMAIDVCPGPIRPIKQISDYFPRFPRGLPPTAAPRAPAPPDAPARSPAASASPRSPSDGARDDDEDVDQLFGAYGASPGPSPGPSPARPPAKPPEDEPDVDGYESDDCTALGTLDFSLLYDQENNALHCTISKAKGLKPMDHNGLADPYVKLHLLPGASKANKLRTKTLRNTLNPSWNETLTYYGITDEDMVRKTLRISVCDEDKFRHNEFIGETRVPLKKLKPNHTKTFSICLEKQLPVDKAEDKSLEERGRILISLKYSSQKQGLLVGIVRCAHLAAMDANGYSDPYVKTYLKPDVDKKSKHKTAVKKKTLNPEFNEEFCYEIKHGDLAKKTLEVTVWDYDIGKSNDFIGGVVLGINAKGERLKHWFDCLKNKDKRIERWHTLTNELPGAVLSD

“recombinant syntaxin-4 (cleaved from GST syntaxin-4) (from UniProt P70452 1-298) (natural protein)” gave a percent of syntaxin-4 pulled down of 5%.
